# Measurements published in patent US20210130452A1 (Merck KGaA, published 2021).
# Residue numbers refer to the chain shown, from its start.
# B1: 02A08 (VHH)
# VHH: EVQLVESGGGVVQPGGSLRLSCADSERSFSFNAMGWFRQAPGKEREFVAAISATGDDTYYADSVKGRFAISRDTARNTVYLQMNSLKPEDTAVYYCGARVNFDGTVSYTNDYAYWGQGTQVTVSS
# notes: Class 2
# B2: 02A08 (VHH)
# VHH: B1 VHH
# notes: Class 2
# B3: 03C07 (VHH)
# VHH: EVQLVESGGGLVQAGGSLRLSCAASGFTFDDYAIGWFRQAPGKEREAVSCFSSSDGSIYYADSVKGRFTISSDNAKNTVYLQMNSLKPEDTAVYYCAGGGGSYYYTQLNYCYDMDYWGKGTQVTVSS
# notes: Class 2
# B4: 11C08 (VHH)
# VHH: EVQLVESGGGLVQAGGSLRLSCAASGVIFRLNAMGWYRAAPGKQRELVAIIVNGGSTNYADSVKGRFTISRDSAKNAVYLQMNSLKPEDTAVYYCYYNIPGDVYWGQGTQVTVSS
# notes: Class 4
# B5: 13B05 (VHH)
# VHH: EVQLVESGGRLVQAGGSLRLSCAASGRTFTSYPMGWFRQAPGKEREFVAAISMSGDDTAYTDFVRGRFTISRDDARNTVYLHMTSLKPEDTAVYYCAARTSYDGTYDYIDDYSYWGQGTQVTVSS
# notes: Class 4
# B6: 13E05 (VHH)
# VHH: EVQLVESGGGKVQAGDSLTLSCVASGGTFSNYAAWFRQAPGKDRRELVVSIFRTGSITYTADSVKGRFTASRVNTKNTVYLQMNSLKPEDTAVYYCASAYNPGVGYDYWGQGTQVTVSS
# notes: Class 4
# B7: IL17MS3043 (VHH)
# VHH: EVQLVESGGGSVQPGGSLRLSCAASGRANSINWFGWFRQTPGKEREFVAGIRWSDAYTEYANSVKGRFTISRDNSKNTVYLQMDSLRPEDTAVYYCVLDLSTVRYWGQGTLVTVSS
# notes: variant of IL17MS13B03; Kabat numbering
# B8: IL17MS3044 (VHH)
# VHH: B7 VHH with S11L, G16D, Y80D
# notes: as for B7
# B9: IL17MS3045 (VHH)
# VHH: B7 VHH with G16D, T40A, Y80D
# notes: as for B7
# B10: IL17MS3046 (VHH)
# VHH: B7 VHH with G16D, N62A, Y80D
# notes: as for B7
# B11: IL17MS3048 (VHH)
# VHH: B7 VHH with G16D, Y80D, D84N
# notes: as for B7
# B12: IL17MS3049 (VHH)
# VHH: B7 VHH with G16D, T40A
# notes: as for B7
# B13: IL17MS3050 (VHH)
# VHH: B7 VHH with Y80D
# notes: as for B7
# B14: IL17MS3038 (VHH)
# VHH: EVQLVESGGGLVQAGGSLRLSCAASGRTYDAVGWLRQAPGKEREFVAAISGSGDDTYYADSVKGRFTISKDNAGITMYLQMNSLKPEDTAVYYCATRRGLYYVWDSNDYENWGQGTQVTVSS
# notes: variant of IL17MS13E02; Kabat numbering
# B15: IL17MS3039 (VHH)
# VHH: B14 VHH with V32M, M77V
# notes: as for B14
# Target: T1, mouse IL-17A (mouse, UniProt Q62386 26-158)
# T1 sequence (looked up): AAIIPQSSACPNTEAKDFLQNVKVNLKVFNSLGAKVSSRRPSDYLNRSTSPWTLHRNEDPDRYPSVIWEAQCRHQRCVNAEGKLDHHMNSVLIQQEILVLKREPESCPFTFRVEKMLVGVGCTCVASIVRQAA
# Experiment: binding ELISA
# Description: (§1) Binding of a selected panel of anti-IL-17 Nanobodies to IL-17 of other species was assessed using a binding ELISA. […] HRP (horseradish peroxidase) conjugated anti-myc (Serotec, MCA 2200P) was used for detection using esTMB as substrate.
row,Binder,binding result
1,B1,no binding (tested: 250 nM)

# Target: T2, rat IL-17A (rat, UniProt Q61453 18-150, limits assumed)
# T2 construct: made in E. coli, bought
# T2 sequence (looked up): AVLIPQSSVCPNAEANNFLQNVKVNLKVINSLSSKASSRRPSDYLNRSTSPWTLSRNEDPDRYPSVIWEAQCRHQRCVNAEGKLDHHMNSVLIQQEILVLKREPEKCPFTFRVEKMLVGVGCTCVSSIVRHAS
# Experiment: binding ELISA
# Description: as §1
row,Binder,binding result
1,B1,no binding (tested: 250 nM)

# Target: T3, human IL-17B (human, UniProt Q9UHF5 21-180)
# T3 construct: expressed in E. coli; also called hIL-17B
# T3 sequence (looked up): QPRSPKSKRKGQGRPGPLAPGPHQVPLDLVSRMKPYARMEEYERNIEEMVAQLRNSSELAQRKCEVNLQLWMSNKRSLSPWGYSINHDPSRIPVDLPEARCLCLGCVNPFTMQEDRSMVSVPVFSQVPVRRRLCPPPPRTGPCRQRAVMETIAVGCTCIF
# Experiment: SPR, cytokine on chip
# Excerpt: (§2) Human IL-17B, IL-17C, IL-17D or IL-17E were all expressed in E. coli, and covalently bound to a CM sensor chip surface via amine coupling using EDC/NHS for activation and HCl for deactivation.
# (§3) Next, binding buffer was sent over the chip at the same flow rate to allow spontaneous dissociation of bound Nanobody or antibody.
row,Binder,binding result
1,B1,no binding

# Target: T4, human IL-17C (human, UniProt Q9P0M4 19-197)
# T4 construct: expressed in E. coli; also called hIL-17C
# T4 sequence (looked up): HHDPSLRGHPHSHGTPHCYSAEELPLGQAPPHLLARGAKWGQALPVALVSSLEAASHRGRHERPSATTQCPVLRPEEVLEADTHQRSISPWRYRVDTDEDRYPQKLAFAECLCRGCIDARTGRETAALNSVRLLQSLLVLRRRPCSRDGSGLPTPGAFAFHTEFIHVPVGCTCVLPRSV
# Experiment: SPR, cytokine on chip
# Excerpt: as §2, §3
row,Binder,binding result
1,B1,no binding

# Target: T5, human IL-17D (human, UniProt Q8TAD2 18-202, limits assumed)
# T5 construct: expressed in E. coli; also called hIL-17D
# T5 sequence (looked up): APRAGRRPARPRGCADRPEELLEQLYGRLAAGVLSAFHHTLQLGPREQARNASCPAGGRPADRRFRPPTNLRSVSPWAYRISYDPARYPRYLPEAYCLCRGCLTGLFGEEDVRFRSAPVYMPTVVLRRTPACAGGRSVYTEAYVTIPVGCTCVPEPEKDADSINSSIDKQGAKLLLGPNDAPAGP
# Experiment: SPR, cytokine on chip
# Excerpt: as §2, §3
row,Binder,binding result
1,B1,no binding

# Target: T6, human IL-17E (human, UniProt Q9H293 33-177)
# T6 construct: expressed in E. coli; also called hIL-17E
# T6 sequence (looked up): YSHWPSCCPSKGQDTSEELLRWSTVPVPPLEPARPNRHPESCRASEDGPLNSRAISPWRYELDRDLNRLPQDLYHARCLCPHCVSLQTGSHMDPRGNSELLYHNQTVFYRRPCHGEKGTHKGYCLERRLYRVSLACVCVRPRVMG
# Experiment: SPR, cytokine on chip
# Excerpt: as §2, §3
row,Binder,binding result
1,B1,no binding

# Target: T7, human IL-17A (human, UniProt Q16552 24-155)
# T7 construct: secreted form (GenBank U32659) expressed in Hek293 with C-terminal 6-His; also called hIL-17A; IL-17A-6HIS
# Experiment: ELISA, coated IL-17A
# T7 sequence (Q16552 other isoform, or with tags, fused parts or gaps): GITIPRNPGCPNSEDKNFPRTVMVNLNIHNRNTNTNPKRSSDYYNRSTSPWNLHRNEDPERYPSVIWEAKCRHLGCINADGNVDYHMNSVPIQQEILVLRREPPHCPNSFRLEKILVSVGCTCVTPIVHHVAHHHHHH
# Description: as §1
row,Binder,OD
1,B2,1.95 OD
2,B3,1.7 OD
3,B4,1.71 OD
4,B5,1.82 OD
5,B6,1.96 OD

# Target: T8, marmoset IL-17A (marmoset, IL-17A is a disulfide-linked homodimer. One chain is given.)
# T8 chain: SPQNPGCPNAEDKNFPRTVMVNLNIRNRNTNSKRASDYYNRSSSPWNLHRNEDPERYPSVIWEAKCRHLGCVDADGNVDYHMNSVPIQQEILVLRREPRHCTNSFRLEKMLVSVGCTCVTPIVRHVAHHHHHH
# Experiment: ELISA, coated IL-17A
# Description: as §1
row,Binder,OD
1,B2,1.95 OD
2,B3,1.7 OD
3,B4,0.671 OD
4,B5,1.91 OD
5,B6,1.89 OD

# Target: T9, mouse IL-17A (mouse, UniProt Q62386 26-158)
# T9 sequence (looked up): T1 sequence (looked up)
# Experiment: ELISA, coated IL-17A
# Description: as §1
row,Binder,OD
1,B2,-0.001 OD
2,B3,-0.004 OD
3,B4,-0.005 OD
4,B5,-0.006 OD
5,B6,0.004 OD

# Target: T10, rat IL-17A (rat, UniProt Q61453 18-150, limits assumed)
# T10 sequence (looked up): T2 sequence (looked up)
# Experiment: ELISA, coated IL-17A
# Description: as §1
row,Binder,OD
1,B2,0.002 OD
2,B3,0.003 OD
3,B4,0.002 OD
4,B5,0.003 OD
5,B6,0.003 OD

# Target: guinea pig IL-17A (guinea pig)
# Experiment: ELISA, coated IL-17A
# Description: as §1
row,Binder,OD
1,B2,0.002 OD
2,B3,0.004 OD
3,B4,0.002 OD
4,B5,0.001 OD
5,B6,0.006 OD

# Target: T11, mouse IL-17F (mouse, UniProt Q7TNI7 29-161)
# T11 sequence (looked up): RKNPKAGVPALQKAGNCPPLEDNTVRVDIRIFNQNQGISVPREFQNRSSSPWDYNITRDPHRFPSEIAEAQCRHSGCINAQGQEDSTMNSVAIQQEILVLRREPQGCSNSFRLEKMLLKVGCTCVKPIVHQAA
# Experiment: ELISA, coated IL-17F;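 also: binding ELISA on coated antigen from various species, with bound Nanobodies revealed by an HRP-linked anti-myc antibody and esTMB substrate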
# Description: as §1
row,Binder,OD
1,B3,0.0005 OD
2,B4,-0.0025 OD
3,B5,0.0205 OD
4,B6,0.0005 OD

# Target: T12, rat IL-17F (rat, UniProt Q5BJ95 29-161)
# T12 sequence (looked up): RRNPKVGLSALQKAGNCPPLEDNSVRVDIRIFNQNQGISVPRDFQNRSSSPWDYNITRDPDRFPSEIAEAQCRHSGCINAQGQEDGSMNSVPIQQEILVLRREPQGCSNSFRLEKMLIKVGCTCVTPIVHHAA
# Experiment: ELISA, coated IL-17F;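 also: binding ELISA on coated antigen from various species, with bound Nanobodies revealed by an HRP-linked anti-myc antibody and esTMB substrate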
# Description: as §1
row,Binder,OD
1,B2,0.0035 OD
2,B3,0.0015 OD
3,B4,0.0005 OD
4,B5,0.0095 OD
5,B6,0.0025 OD

# Target: T13, human IL-17A (human, UniProt Q16552 24-155)
# T13 construct: secreted form made in Hek293 cells (GenBank U32659); also called hIL-17A; hIL17A
# Experiment: SPR (Biacore) off-rate
# T13 sequence (Q16552 other isoform, or with tags, fused parts or gaps): as the sequence (Q16552 other isoform, or with tags, fused parts or gaps) above
row,Binder,koff
1,B7,0.000276 s⁻¹
2,B8,0.000212 s⁻¹
3,B9,0.00027 s⁻¹
4,B10,0.000281 s⁻¹
5,B11,0.000295 s⁻¹
6,B12,0.00015 s⁻¹
7,B13,0.000267 s⁻¹

# Target: T14, human IL-17F (human, UniProt Q96PD4 31-163)
# T14 construct: made in Hek293 cells (GenBank AF384857); also called hIL-17F; hIL17F
# T14 sequence: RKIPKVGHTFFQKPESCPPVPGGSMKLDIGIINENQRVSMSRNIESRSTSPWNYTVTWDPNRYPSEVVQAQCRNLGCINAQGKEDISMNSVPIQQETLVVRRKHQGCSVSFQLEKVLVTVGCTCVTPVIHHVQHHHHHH
# Experiment: SPR (Biacore) off-rate
row,Binder,koff
1,B7,0.00811 s⁻¹
2,B8,0.00776 s⁻¹
3,B9,0.00794 s⁻¹
4,B10,0.00848 s⁻¹
5,B11,0.00874 s⁻¹
6,B12,0.00757 s⁻¹
7,B13,0.00855 s⁻¹

# Target: T15, human IL-17A/F heterodimer (human, UniProt Q16552 24-155; Q96PD4 31-163, limits assumed)
# T15 construct: bought, made in E. coli (R&D Systems 5194-IL/CF); also called hIL-17A/F; hIL17A/F
# T15 sequence (Q16552 24-155 limits assumed, chain 1 of 2, one chain of several): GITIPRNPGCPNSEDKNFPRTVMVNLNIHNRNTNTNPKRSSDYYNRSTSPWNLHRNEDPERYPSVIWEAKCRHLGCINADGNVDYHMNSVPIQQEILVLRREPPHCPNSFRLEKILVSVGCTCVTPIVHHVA
# Experiment: SPR (Biacore) off-rate
row,Binder,koff
1,B7,0.000585 s⁻¹
2,B8,0.000253 s⁻¹
3,B9,0.000616 s⁻¹
4,B10,0.000515 s⁻¹
5,B11,0.000665 s⁻¹
6,B12,0.000248 s⁻¹
7,B13,0.000575 s⁻¹

# Target: T13, human IL-17A
# Experiment: SPR (Biacore) off-rate
# Remark: another data set of the same source
row,Binder,koff
1,B14,0.000225 s⁻¹
2,B15,0.00021 s⁻¹

# Target: T14, human IL-17F
# Experiment: SPR (Biacore) off-rate
# Remark: another data set of the same source
row,Binder,koff
1,B14,0.0101 s⁻¹
2,B15,0.00515 s⁻¹

# Target: T15, human IL-17A/F heterodimer
# Experiment: SPR (Biacore) off-rate
# Remark: another data set of the same source
row,Binder,koff
1,B14,6.82e-05 s⁻¹
2,B15,4.03e-05 s⁻¹

# Target: T14, human IL-17F
# Experiment: AlphaScreen hIL-17F-IL-17RC; vs IL17MS13E02
row,Binder,IC50 fold difference vs WT
1,B14,3.2 fold
2,B15,1.25 fold

# Target: T7, human IL-17A
# Experiment: SPR, IL-17A-Nanobody complex over captured IL-17RA
# Excerpt: The receptor (IL-17RA or IL-17RC) was captured via its human Fc-tail by an anti-human IgG-Fc antibody coated on the chip.
row,Binder,% Biacore binding (IL-17A-NB)-IL-17RA
1,B2,0.46%
2,B3,-0.08%
3,B4,3.25%
4,B5,-0.89%
5,B6,0.54%
